Where no end group is shown, it is not given here.

The target in data set [1] is T1, full-length rat Arc with a poly-Ala mutation in residues 113-119 (rArcFL-7A) (rat, UniProt Q63053, poly-Ala mutation in residues 113-119).
T1 construct: Activity-regulated cytoskeleton-associated protein (Arc), rat, full length, residues 113-119 replaced by alanines; expressed with an N-terminal His6-MBP fusion in pHMGWA; also called flArc dimeric mutant; dimeric full-length Arc; not shown: His6, N-terminal, cleaved; MBP, N-terminal, cleaved
In words: SEC-MALS + other: SEC-SAXS; rArcFL-7A alone and with E5, C11 or both; 20 mM Tris pH 7.5, 150 mM NaCl, 0.5 mM TCEP; 1:1.3 protein-to-nanobody ratio for SAXS. The settings on record: both partners purified. On the technique in general: Size exclusion chromatography separates by hydrodynamic size, large species first.

The target of data set [2] is T2, Arc N-lobe (Arc-NL, Arc 207-277) (human, UniProt Q7LC44).
T2 construct: Activity-regulated cytoskeleton-associated protein (Arc), N-lobe, residues 207-277; identical for human, rat and mouse Arc-NL; construct His6-MBP-TEV-NL in pETMBP_1a; 8.9 kDa as printed; also called human Arc N-lobe; source: E. coli BL21(DE3), purified (Ni-NTA, tag cleavage, reverse Ni-NTA, SEC); not shown: His6, N-terminal, cleaved; MBP, N-terminal, cleaved
In words: ITC; displacement assay: 100 μM E5/H11 (titrant) into 10 μM Arc-NL saturated with 100 μM P1, TBS, 20 °C; apparent constants, one replicate. The note with it: both partners purified. A general note: Isothermal titration calorimetry measures the heat released or taken up as one component is titrated into another.

Data set [3] has as its target T2, Arc N-lobe (Arc-NL, Arc 207-277). The data set is described as follows: ITC; 15 μM E5/H11 (titrant) into 1.5 μM Arc-NL (titrate), TBS (20 mM Tris-HCl pH 7.5, 150 mM NaCl), 20 °C, 1:1 binding model, four replicates. The note with it: both partners purified.
Data set [4] deals with the molecule itself. In words: SEC-MALS + other: SEC-SAXS; rArcFL-7A alone and with E5, C11 or both; 20 mM Tris pH 7.5, 150 mM NaCl, 0.5 mM TCEP; 1:1.3 protein-to-nanobody ratio for SAXS.
Data set [5] has as its target T3, Arc N-lobe (Arc-NL, Arc 207-277) (human, UniProt Q7LC44 207-277).
T3 construct: Activity-regulated cytoskeleton-associated protein (Arc), N-lobe, residues 207-277; identical for human, rat and mouse Arc-NL; construct His6-MBP-TEV-NL in pETMBP_1a; 8.9 kDa as printed; also called human Arc N-lobe; source: E. coli BL21(DE3), purified (Ni-NTA, tag cleavage, reverse Ni-NTA, SEC); not shown: His6, N-terminal, cleaved; MBP, N-terminal, cleaved
T3 sequence (looked up): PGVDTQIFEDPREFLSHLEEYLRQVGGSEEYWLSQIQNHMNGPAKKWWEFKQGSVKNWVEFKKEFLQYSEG
The data set is described as follows: ITC; 2 mM P1 (titrant) into 200 μM Arc-NL (titrate), TBS, 20 °C, three sequential titrations concatenated, 1:1 binding model, one replicate. The note with it: both partners purified.

B1: anti-Arc nanobody E5 (VHH)
VHH: EVQLQESGGGLVQAGGSLRLSCAASGSIFSGNAMGWYRQAPGKQREVVAVISAGNSSNYVDSVKGRFTISRDNAKNTVYLQMNSLKPEDTAVYYCNVVKRGPQWGMEWGKGTLVTVSS
notes: alpaca nanobody; 12.8 kDa as printed; provided by Nanotag Biotechnologies in the vector pNT1433 (His6-TEV-E5); CDR3 holds a PxW motif; source: E. coli BL21(DE3), purified (Ni-NTA, tag cleavage, reverse Ni-NTA, SEC); not shown: His6, N-terminal, cleaved
In the case of B1, in data set [1], the “stoichiometry Arc:E5:C11 of the ternary complex” value was 1 E5 per Arc chain (2 Arc : 2 E5 : 2 C11) and the “stoichiometry N” value is 1 E5 per Arc chain (2 E5 : 2 Arc). Also, the “dH-App (Arc-NL saturated with P1)” value in data set [2] was -12 kcal/mol. For the same molecule, in data set [3], the Kd was 0.99 nM and the dH was -23.2 kcal/mol.

B2: anti-Arc nanobody H11 (VHH)
VHH: EVQLLESGGGLVQAGDSLRLSCAASGRTFSAYAMGWFRQAPGKEREFVAAISWSGNSTYYADSVKGRFTISRDNAKNTVYLQMNSLKPEDTAIYYCAARKPMYRVDISKGQNYDYWGQGTQVTVSS
notes: alpaca nanobody; 14.1 kDa as printed; provided by Nanotag Biotechnologies in the vector pNT1433 (His6-TEV-H11); CDR3 holds a PxY motif; source: E. coli BL21(DE3), purified (Ni-NTA, tag cleavage, reverse Ni-NTA, SEC); not shown: His6, N-terminal, cleaved
B2: the “dH-App (Arc-NL saturated with P1)” value in data set [2] is -10.3 kcal/mol. In data set [3], this molecule returned a Kd of 1.14 nM and a dH of -23.5 kcal/mol.

B3: full-length rat Arc with a poly-Ala mutation in residues 113-119 (rArcFL-7A) (natural protein, UniProt Q63053 1-396, looked up)
chain: MELDHMTTGGLHAYPAPRGGPAAKPNVILQIGKCRAEMLEHVRRTHRHLLTEVSKQVERELKGLHRSVGKLENNLDGYVPTGDSQRWKKSIKACLCRCQETIANLERWVKREAAAAAAAFYRLERWADRLESMGGKYPVGSEPARHTVSVGVGGPEPYCQEADGYDYTVSPYAITPPPAAGELPEQESVGAQQYQSWVPGEDGQPSPGVDTQIFEDPREFLSHLEEYLRQVGGSEEYWLSQIQNHMNGPAKKWWEFKQGSVKNWVEFKKEFLQYSEGTLSREAIQRELDLPQKQGEPLDQFLWRKRDLYQTLYVDAEEEEIIQYVVGTLQPKFKRFLRHPLPKTLEQLIQRGMEVQDGLEQAAEPSVTPLPTEDETEALTPALTSESVASDRTQPE
notes: Activity-regulated cytoskeleton-associated protein (Arc), rat, full length, residues 113-119 replaced by alanines; expressed with an N-terminal His6-MBP fusion in pHMGWA; also called flArc dimeric mutant; dimeric full-length Arc; not shown: His6, N-terminal, cleaved; MBP, N-terminal, cleaved
Regarding B3, the “stoichiometry N” value in data set [4] came to 2.

B4: FITC-labelled, TAT-tagged TARPγ2 peptide (forward peptide P1) (peptide)
peptide: YGRKKRRQRRRGGRIPSYRYR
modifications: also: FITC label, position not given here
notes: stretch of the transmembrane AMPAR regulatory protein γ2 (TARPγ2, stargazin); the split into TAT, linker and TARPγ2 stretch is mine; also called TARPγ2-derived peptide; source: synthetic peptide, bought: GenScript Biotech
Turning to B4, in data set [5], the Kd worked out at 5.31 µM and the dH was -14.9 kcal/mol.

One may read the stoichiometry N as the number of molecules, sites or subunits per partner or assembly. One may read the Kd as a measure of binding affinity in units of concentration. Low values mean higher affinity, high ones lower affinity.

Values taken from article PMC11057775, “Structural characterization of two nanobodies targeting the ligand-binding pocket of human Arc” (PLOS ONE, 2024).
